Assay [1] addresses T1, minor histocompatibility antigen (miHA) HA-1, 'H' epitope peptide on HLA-A*02:06 (human).
T1 peptide: VLHDDLLEA
In words: activation reporter or marker.

Assay [2] concerns the target T2, minor histocompatibility antigen (miHA) HA-1, 'H' epitope peptide on HLA-A*02:01 (human).
T2 peptide: VLHDDLLEA
In words: killing.

Assay [3] deals with T3, minor histocompatibility antigen (miHA) HA-1, 'R' epitope (non-target allelic variant) peptide on HLA-A*02:01 (human).
T3 peptide: VLRDDLLEA
The assay is described as follows: killing.

B1: anti-HA-1 'H' epitope TCR (TCR, V domains shown)
Valpha: AQSVAQPEDQVNVAEGNPLTVKCTYSVSGNPYLFWYVQYPNRGLQFLLKYITGDNLVKGSYGFEAEFNKSQTSFHLKKPSALVSDSALYFCAVRAPTSGTYKYIFGTGTRLKVLA
Vbeta: DTGVSQDPRHKITKRGQNVTFRCDPISEHNRLYWYRQTLGQGPEFLTYFQNEAQLEKSRLLSDRFSAERPKGSFSTLEIQRTEQGDSAMYLCASSLVSGNEQFFGPGTRLTVL
With B1, the values for the binding result in assay [1], in assay [2] and in assay [3] were “recognises”, “recognises” and “no recognition”, respectively.

The values above are taken from patent US20250242021A1 (published 2025).
